In assay [1] the target is recombinant human CD16a(V) (human) (UniProt P08637). Briefly: SPR (Biacore T100), antibody immobilized on sensor chip, soluble FcR as analyte, steady state affinity model. On the technique in general: SPR reads the build-up and loss of mass on a sensor chip optically.
The target of assay [2] is recombinant human CD32a (human) (UniProt P12318). The description is as above.
Assay [3] addresses recombinant human CD16a(F) (human) (UniProt P08637). Described as above.
Assay [4] concerns the target recombinant human CD16b (human) (UniProt O75015). The description is as above.
In assay [5] the target is recombinant human CD64 (human) (UniProt P12314). The assay is described as follows: SPR (Biacore T100), antibody immobilized on sensor chip, soluble CD64 as analyte, 1:1 kinetic binding model.
Sequence of recombinant human CD64 (human) (P12314 16-292 limits assumed): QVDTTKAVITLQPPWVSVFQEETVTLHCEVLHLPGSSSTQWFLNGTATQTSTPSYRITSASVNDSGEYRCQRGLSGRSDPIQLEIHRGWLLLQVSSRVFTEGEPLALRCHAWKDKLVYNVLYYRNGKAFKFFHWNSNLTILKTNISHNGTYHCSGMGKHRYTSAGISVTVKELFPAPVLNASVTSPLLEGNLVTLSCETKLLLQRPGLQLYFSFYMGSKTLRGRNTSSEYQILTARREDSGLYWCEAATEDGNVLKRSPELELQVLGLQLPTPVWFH
The target of a further assay is human FcRn (human) (UniProt P55899). Briefly: SPR (Biacore T100), antibody immobilized on sensor chip, soluble FcR as analyte, steady state affinity model.
Sequence of human FcRn (human) (P55899 24-297 limits assumed, chain 1 of 2): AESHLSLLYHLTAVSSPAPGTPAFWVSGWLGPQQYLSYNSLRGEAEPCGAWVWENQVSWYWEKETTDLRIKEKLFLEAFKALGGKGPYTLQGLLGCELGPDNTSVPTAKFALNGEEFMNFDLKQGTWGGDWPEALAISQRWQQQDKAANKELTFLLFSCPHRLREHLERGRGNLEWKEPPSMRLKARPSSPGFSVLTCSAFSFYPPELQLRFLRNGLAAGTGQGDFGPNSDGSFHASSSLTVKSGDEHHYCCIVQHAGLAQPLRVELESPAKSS
Sequence of human FcRn (human) (P61769 21-119 limits assumed, chain 2 of 2, further chain): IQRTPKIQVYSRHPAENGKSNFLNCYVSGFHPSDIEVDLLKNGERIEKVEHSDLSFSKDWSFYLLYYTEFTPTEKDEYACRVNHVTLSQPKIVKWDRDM

pKd: −log10 of the molar value.

What is called pKd is the Kd on a negative log10 scale, so that one unit is a factor of ten.

Sequence of recombinant human CD16a(V) (human) (P08637 17-208 F176V limits assumed): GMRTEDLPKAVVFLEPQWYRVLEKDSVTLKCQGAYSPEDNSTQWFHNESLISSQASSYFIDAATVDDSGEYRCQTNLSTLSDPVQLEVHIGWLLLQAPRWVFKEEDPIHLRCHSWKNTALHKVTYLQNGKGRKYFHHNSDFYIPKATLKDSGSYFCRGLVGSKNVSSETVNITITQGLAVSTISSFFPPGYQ
Sequence of recombinant human CD16b (human) (O75015 17-200 limits assumed): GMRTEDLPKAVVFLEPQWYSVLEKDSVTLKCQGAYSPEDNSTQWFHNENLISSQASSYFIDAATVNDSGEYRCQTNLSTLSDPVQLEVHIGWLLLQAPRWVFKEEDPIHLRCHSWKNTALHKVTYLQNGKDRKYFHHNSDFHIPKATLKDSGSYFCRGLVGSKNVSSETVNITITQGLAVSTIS
Sequence of recombinant human CD16a(F) (human) (P08637 17-208 limits assumed): as the sequence (P08637 17-208 F176V limits assumed) above, with V160F counted along it
Sequence of recombinant human CD32a (human) (P12318 34-217): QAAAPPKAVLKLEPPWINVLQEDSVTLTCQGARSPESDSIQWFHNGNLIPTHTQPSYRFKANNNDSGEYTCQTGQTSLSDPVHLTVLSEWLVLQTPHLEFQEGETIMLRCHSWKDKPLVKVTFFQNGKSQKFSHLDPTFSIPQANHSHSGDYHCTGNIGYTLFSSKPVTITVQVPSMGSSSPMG

On to “antibody having wild type human IgG1 domain (from UniProt P01857 1-330)”, for which the pKd in assay [1] is 6.13; in assay [2], 5.68; in assay [3], 6.02; in assay [4] it was 4.82.
With “human IgG1 antibody having a N297S substitution (from UniProt P01857 1-330)”, the pKd in assay [5] is 6.56; with human FcRn (human), 6.15.

These data come from US20200023071A1.
